Measured values: paper PMC12800186, “Intelectin-2 is a broad-spectrum antimicrobial lectin” (Nature Communications, 2026)
“And” between values parts separate entries of the source, which are not always exact repeats. Equal values may be shown once.

Tests used:
[1] = target: the molecule itself; test: not stated; recombinant StrepII-hItln2; covalent trimers and higher-order oligomers (Supplementary Fig. 8E, F)
[2] = target: the molecule itself; test: cross-linking; 1 mg/mL mItln2 in HEPES/EDTA buffer with BS3 (0.1-5 mM), RT, 30 min; SDS-PAGE with DTT

Protein	stoichiometry N [1]	stoichiometry N [2]
StrepII-tagged human intelectin-2 (A177S, C311G) (natural protein, UniProt Q8WWU7 27-325, looked up, Human intelectin-2 (hItln2, ITLN2), cDNA AY358905; secreted from HEK293 cells; mass and extinction coefficient were calculated without the signal peptide; A177S introduces a glycosylation site, C311G removes an unpaired cysteine; For low pH and low salt experiments the protein was exchanged into PIPES buffer, pH 5.5; also called hItln2; StrepII-hItln2; source: suspension-adapted HEK293 cells, …) AAASSLEMLSREFETCAFSFSSLPRSCKEIKERCHSAGDGLYFLRTKNGVVYQTFCDMTSGGGGWTLVASVHENDMRGKCTVGDRWSSQQGNKADYPEGDGNWANYNTFGSAEAATSDDYKNPGYYDIQAKDLGIWHVPNKSPMQHWRNSSLLRYRTNTGFLQRLGHNLFGIYQKYPVKYRSGKCWNDNGPAIPVVYDFGDAKKTASYYSPYGQREFVAGFVQFRVFNNERAANALCAGIKVTGCNTEHHCIGGGGFFPQGKPRQCGDFSAFDWDGYGTHVKSSGSREITEAAVLLFYR	≥ 3	
StrepII-tagged mouse intelectin-2 (natural protein, UniProt Q80ZA0 20-313, looked up, glycosylated (N-glycosylation examined with PNGase F), Mouse intelectin-2 (mItln2), GenBank AAO60215, UniProt Q80ZA0; amplified from the start to the stop codon and secreted from HEK293 cells; mass and extinction coefficient were calculated without the signal peptide; Non-covalent oligomers of variable size; also called mItln2; strep-mItln2; source: suspension-adapted HEK293 cells, transient transfection, purified from the expression medium …) AEENLDTNRWGNSFFSSLPRSCKEIKQEDTKAQDGLYFLRTENGVIYQTFCDMTTAGGGWTLVASVHENNLRGRCTVGDRWSSQQGNRADYPEGDGNWANYNTFGSAEGATSDDYKNPGYFDIQAENLGIWHVPNNSPLHTWRNSSLLRYRTFTGFLQRLGHNLFGLYQKYPVKYGEGKCWTDNGPAFPVVYDFGDAQKTASYYSPSGRNEFTAGYVQFRVFNNERAASALCAGVRVTGCNTEHHCIGGGGFFPEFDPEECGDFAAFDANGYGTHIRYSNSREITEAAVLLFYR		2 and 3 and 6
